Source: the DeepSol protein solubility set

Experiment: soluble on expression in E. coli; label from the status in PepcDB or PDB records

Sequence	soluble on expression in E. coli
MGSDKIHHHHHHMEVKPFRPLIYRKEIDGMISPPFDAITPKQEIELKRNPYNITYLTLPKGRDGVSHARMIMENWIENGVLLRAERDCIIVLKQIFSANSRRITRYGIIARVRVFPENGDVIPHERTFDEFVRDREILMEGIGSQLEPIFLVTLKNELPQYLKIITENMKEDNRYFGPENVENYVYYIYDHKEIQKISNILRNDIAIVADGHHRLQATKNIASRQSGLAREFWSYAMSYVTSIHDEGVLIGGVHRVISSRFRFDADRASKYFYVDQCDTIAGNDPVIYDGRFYCIRPRENVYDNIIDSLNDFLFSKTIGMSTIDLERDVIYTHDYAEVVNLVNSGSFSFGVIMPDWDKAHLVELLLTRKILPQKSTYFYPKIPSGISIDSISEFIVT	not soluble
TPAAPISTVADGDWPAYGRNQEGQRFSPLKQINADNVKNLKEAWVFRTGDLKQPNDPGEITNEVTPIKVGDTLFLCTAHQRLFALDAATGKEKWHFDPQLNADPSFQHVTCRGVSYHEAKADNAPADVVADCPRRIILPVNDGRLFAVNADNGKLCETFANKGILNLQTNMPVTTPGMYEPTSPPIITDKTIVIAGAVTDNFSTREPSGVIRGFDVNTGKLLWAFDPGAKDPNAIPSDEHHFTLNSPNSWAPAAYDAKLDLVYLPMGVTTPDIWGGNRTPEQERYASSIVALNATTGKLAWSYQTVHHDLWDMDMPSQPTLADIEVNGKTVPVIYAPAKTGNIFVLDRRNGELVVPAPEKPVPQGAAKGDYVTKTQPFSDLSFRPKKDLTGADMWGATMFDQLVCRVIFHQLRYEGIFTPPSEQGTLVFPGNLGMFEWGGISVDPNRQVAIANPMALPFVSKLIPRGPGNPMEPPKDAKGSGTESGVQPQYGVPYGVTLNPFLSPFGLPCKQPAWGYISALDLKTNEVVWKKRIGTPQDSLPFPMPVKLPFTMGMPMLGGPISTAGNVLFIGATADNYLRAYNMSNGEKLWEARLPAGGQATPMTYEVNGKQYVVISAGGHGSFGTKMGDYIVAYALPDDAK	not soluble
SGCFGCFSPEVDDDLKPSKPNYHSSDESSGADARRKVAPLATDGGNGYAHSFTFKDLSVATGYFNEANFIGEGGFGKVYKGKINGQMVAVKQLTRDGVQGRNEFLVEVLMLTVLNHPHLVSLVGFCAQGDERLLVYEYMPFGSLESHLFDVPLGKQPLDWNTRMRIAVGVAEGLSYLHNVADPPIIYRDMKAANILLDEDYRPKLSDFGLAKVGPVGDRTHVSTRVMGTYGYCAPDYVVSGKLTMKSDIYSFGVLLLELITGRRIYDASRPKPEQSLLTWSRPFLHDKRKFYRLADPALHGCYPTSALNQLVVISIMCLQDQPHVRPIISDVVIGLNHVASQPYVPERSSVSLSSPARCGSPQYAGTPSRRRGGRRVAQYA	soluble
MHSLDSYFQRTTAPKSAAQERREEFHEKVMRSADYIADKFVETVRPLVDEVADKLQSEMPEDMEGTAKRRLICELSRRFGVSISAFK	not soluble
MSLFILKNVTAVQLEPTLVLEGVDIAIEGSLIKAVGPNLRALYPQANYREMGGKLVMPGIVCAHNHFYSGLSRGIMANIAPCPDFISTLKNLWWRLDRALDEESLYYSGLICSLEAIKSGCSAVIDHHASPNFIKGSLNVLRKGFVEAGLRGMTCFETTDRNGGLAELQAGVEENILFAQAIDAAKAKGREPYLVEAHIGAHAPFTVPDEGLAMLREAVQVTGRGLHIHVAEDRYDMAHGHHHHGKEPIARLDEFDLVDSKTLIAHGIYLSPADIELLNSRDAFLVHNARSNMNNHVGYNMHLPEYRNLALGTDGIGSDMLEELKFAYFKHKDAGGALWPDSFARFLWNGNTLLERNFGAKFGRLEPGYKADLTICDYAAPTPLAPRNLGGHLAFGMGSSSVNSVMVEGRMVYQDREFAFDVEPIYQQASKVASRLWQRMDQLAEGHHHHHH	soluble
MNKTKNYSDETIDAFHRGKFYLVQPRLCGHRSGMDAMLLASLVPNNFKGKVVDLGAGAGAVGLAVAARCLDVHVTLVERSAFMVSYAQKTLMLKQNENLSKRVCLLKADVTLKGRSRLEAGLVDNAFDFAIMNPPFNNPVDRKTPDEKKFEAHVMPESMFDDWLRSAAAIVKPGGYLGLIARPQSLTDILCALEGRFGNICVIPIHARTEKAAIRVLFYAKRGSRAALSLLRPLVIHEDGCHIFSPKIDAINNGHISLWELLK	not soluble
DIQMTQSPSSLSASVGDRVTITCRASGNIHNYLAWYQQKPGKAPKLLIYYTTTLADGVPSRFSGSGSGTDYTFTISSLQPEDIATYYCQHFWSTPRTFGQGTKVEIKR	soluble
GIVATRYRDFSPLLEALTQLLFYVTPIVWTTETLYSQGGAVSERAKLAMLNPLYHYMEVIRAPLIGAPIHP	not soluble
SVKETENLLQTGISEVRGTLKISAPRDIGKQIISPMVSAFSEQYPDVTPYLYLNDNLSNLAESGLDLVIRYGELADSNLISRRLASSQRVLCASPDYLSKQGVPNCPQDLAAHRCLAMVRSNEELKTWHFKDEESHQSITVTPKRFSDDGEVIRQWALDGAGIALKSILDIQQDLKQQRLVTVLDGYMKNFSAFSQGAEADLHVIYQSRQYQPKRVRLFLDFLVEQFSALSDTSNQI	not soluble
MAHHHHHHMSTSLRHTALHAFHVGRRARMAPFSGYDMPINYAAGAVREHLHTREAASIFDVSHFGVVEVFGADREKFLEWLTPSAPSRMPSGKAALTMFLNDRAGVKDDCIVTRYDDRLVVVVNAGCKDKMIAYMRQSVADFTGDVALEMEDRAIVTVQGPKAASALAPHVEDLDKLLFMQGRQDVDIRGMRIKTLTRCSYSGEDGFDIVMREEDALPIVELLLQNPDVQAAGLAARDTLRTEAGLNLYSHELSEDIDPVAARCMWCVPKHRMTEGGFVGHERLAQLVKKAKELVPRVRVGILAAPERGPIPRNGTPVLVEGKCVGVVTSGVPSPTLGRNIALGYVDRSYSNIGQQVGLDVRGKLVKAEIVNSRFVAPRYYRG	not soluble
MENQTTDLENMVGASRAGLTRRGFISAGALCGAAMFLGGNILSRTVLANSVSAASGALLGFESIPTATADSISLPKGYTSSVLISWGQPLQANGPAFDPSGKGTAQAQEVQFGDNNDGMCLFPMPGHKDRALMAINNEYTNYRYLFDHGKEPQSAEEVQKALAAEGVSVIEVQQKQGKWQFVQDSRYNRRVHGNTPIKLSGPAAGHDWLKTDADKGGTHALGTFQNCSSGQTPWGTYLTCEENFTDCFGSSNPEQKFDAGMKRYGVVAASKEINWHPHDPRFDVAKNPNEVNRHGWVVEIDPFDPKSTPVKRTALGRFKHENAAFTQTKGGRAVVYMGDDERGEFIYKFISRDKIDHQNPKANRDLLDHGTLYVAQFDAGDSNPDHPKGKGQWIELTHGKNGLDAAASFNNQAEVLIHARLAASVVKATRMDRPEWIVVSPKDGQVYCTLTNNIKRGDEGQPVGGPNPRAKNQYGQILRWSEEGSNASAMAFDWDLFVVAGNPAVHAGTPQAGSSNINAQNMFNSPDGLSFDEAGRLWIQTDGDSSNKGDFAGMGNNQMLCADPASGEIRRFLVGPVGCEITGISFAPDYKTMFIGIQHPGENGGSTFPEHLPNGKPRSSVMVITREDGGVIGALEHHHHHH	soluble
LLQHAHNPVNWYSWSPEAFSKAKSEDKPIFLSIGYSTCHWCHVMERESFEDDDVAEVLNRSFVSIKVDREERPDIDEIYMNVCTAITGSGGWPLTIVMTPEQKPFFAGTYIPKNNRMGMQGLISLLENIEYQWKENQNELVEIGDKIVSSLNKDRKT	not soluble
MITTGKVWKFGDDISTDEITPGRYNLTKDPKELAKIAFIEVRPDFARNVRPGDVVVAGKNFGIGSSRESAALALKALGIAGVIAESFGRIFYRNAINIGIPLLLGKTEGLKDGDLVTVNWETGEVRKGDEILMFEPLEDFLLEIVREGGILEYIRRRGDLCIR	soluble
MGGSHHHHHHGMASALAAKVDLSTSTDWKEAKSFLKGLSDKQREEHYFCKDFVRLKKIPTWKEMAKGVAVKVEEPRYKKDKQLNEKISLLRSDITKLEVDAIVNAANSSLLGGGGVDGCIHRAAGPLLTDECRTLQSCKTGKAKITGGYRLPAKYVIHTVGPIAYGEPSASQAAELRSCYLSSLDLLLEHRLRSVAFPCISTGVFGYPCEAAAEIVLATLREWLEQHKDKVDRLIICVFLEKDEDIYRSRLPHYFPVA	not soluble
AEKTNYAVTYKSDSVPSISMAVNTEQSSHYISQFIAVQGLEDHSAKSIFIQDMLQRIVSKRLMHYVREELSLDYAPYALMVNADSEFKPHWVMGAQVDPKNAELIESAIDKVIKDLLRGVTENEVNAAAKQLVVDLEPLKNNSTQQAWLLNRYTIHNYGIEALFGISETANSVNAEDINRLIKYSFGKNSHQFKYLSTPI	not soluble
MSLLRPLSKTDCPMLQEINAKALGYLVSLDLLERQYERLIEDCHHYFLAYADKDTNQLLGYVHAERYETLYASDGLNLLGLAVLPAYQRRGIGSALLRALESQARQEGIAFIRLNSASHRKEAHAFYRNLDYADDKTQLRFIKNLQGDDNDFEGHHHHHH	soluble
MSHAVSRLRQERLARSLKPFVARGSRMPRCEGCRLLPSYCMCAWRPRVEARAGMCLVMHDIEALKPTNTGWLIADTVADTFAFGWSRTEVDPRLLELLADPQWQPYLVFPGEYVAAERVVNEVAPLVEGKRPLFILLDATWTEARKMFRKSPYLEPFPVLSLLPEQLSRYRLRRSTRGEHLCTAEVAALCLELAGDEAAGEALGAYLEVFSERYLGAKRHIPLDEASPAHRALAPFRG	not soluble
MAHHHHHHMENIENIENIEKIHLTDDGGVIKTILRKGNEGEENVPKKGNEVTVHYIGKLESDGSIFDSSRQRDVPFKFHLGNGEVIKGWDICVASMKKNEKCLVRLDSKYGYGKEGCGETIPGNSVLIFEIELLSFKEAKKNIYDYTDEEKIQAAFELKDEGNEFFKKNEINEAIAKYKEALDYFMHTDEWEDELLEKKKNIQIICNLNLSTCYNKNKDYPNAIEHASKVLKLDKNNVKGLYKLGVANMNFGFLEEAKINLYKAASLNPKNLDIRNSYELCIAKLKEARKKDQITFG	soluble
MKWILLPILFVTLAVSGTALAQPSPTETVKKTVDDVIKIVSDKELKKPQNEKRRRQEIKRAIGTVFDSAEMAQRAMARHWRDRNAAEKKEFVDLFENLLENSYAGKIESYNQEKVVYLKEAIDGDYAEVRSKIVTARRDEYSLDYRLMLKGGKWVVYDIVIEGVSLVSNYRTQFNKIITNQGYAELVKKLRSKNKEISMPLEHHHHHH	soluble
MGSDKIHHHHHHMLLDHIFICVDENAPEADELVFLGLAEGTPNRHRGQGTANRRFFLPGVMLELLWVADLNELQSVTTRTLGLADRFAARKDGGSPFGFVFKPKNPRIGNSCPFPFRSYHPAYLPETLDMKVADATPRIEPLYVFIDFLPASCSTAQHHPCGIERLTSVHVTFPAQGAPSPVARMIDSLPGMSARVGREHLLELCFDDGKRGVRHDFRNRLPLIIRW	not soluble
VKTGLYSLLGLIMRSALIDNFIESLNRSKYFHVVCSDPKPICNFIEKNLVRGATIVNAKGSFTGDNKYIILTVLSPSQAVKLRNFIKENSPGAFLLISNTSEIIGKGFHSV	not soluble
MIDQFKFLNPQALISIFGKIPKFEESELLDVRLKRDGPTLVIQLMTKENVENKPKRWNKWDVIYVEISFFTIHNLTIKGLGTENIIDYFEINTIEEEGLLKIKCKNQMLVECSFEWAKVEGVTPGLIGLP	not soluble
MSLDDLQSIRESREIRIAMSGQYSPFSFANEQNQIVGFDASISEALAQRLGVKVSIVTTPFDGIIAGLLAKKYDAIIASMTITPERLRAVDFVGPYYHAGRTIVVKEDSPINSLADLKDVTVGVTLGDAHDKWARARGNLKVKTYKGLPEMLVDLEAGRLDALVMDSVPVLVAVKETGQKVRIITPPDSDGGVEGMGIALRKNNPELKAAMQQALNDMLADGSYEKISMKWIGKDIREGHHHHHH	soluble
KFDESALVPEDQFLAQHPGPATIRVSKPNENDGQFMEITVQSLSENVGSLKEKIAGEIQIPANKQKLSGKAGFLKDNMSLAHYNVGAGEILTLSLRER	soluble
